Assays:
Assay type in all cases: biochemical
[1] = Time-dependent induction of expression, sialyltransferase activity and productivity in E. coli homogenate; conditions: for Total enzyme activity (unit): 0.3 L culture; for Amount of transferred sialic acid / Radioactivity (CPM): 1 minute, 30° C.; for Radioactivity (CPM): crude enzyme diluted 200-fold
Experimental: A time-dependent induction experiment of protein expression was performed on the ISH224-N0C0 and ISH224-N1C0 clones obtained in Example 2. A single colony of E. coli TB1 having the expression vector pTrc99A carrying each clone was inoculated into LB medium (6 ml) containing an antibiotic, ampicillin (final concentration 100 μg/mL), and pre-cultured at 30° C. for about 8 hours. This pre-cultured solution was inoculated into LB medium (300 ml) containing and antibiotic, ampicillin (final concentration 100 μg/mL) and cultured with shaking at 30° C. When OD600 reached around 0.5, IPTG (isopropyl-β-D(−)-thiogalactopyranoside, Wako Pure Chemical Industries, Ltd., Japan) was added at a final concentration of 1 mM, followed by culturing with shaking at 30° C. At 4, 6, 22 and 28 hours after culturing, the cells in each culture solution were collected by centrifugation. These cells were suspended in 20 mM Bis-Tris buffer (pH 6.0) containing 0.336% […] Triton® X-100, and ultrasonically homogenized under ice cooling. The resulting homogenate was defined as a crude enzyme solution, diluted 200-fold with 20 mM cacodylate buffer (pH 5.0) containing 0.336% Triton X®-100, and then provided for activity measurement. The reaction was carried out in duplicate. The reaction conditions are as indicated in the footnote of Table 2.
Reaction Conditions Reaction composition:
Reaction time: 1 minute Reaction temperature: 30° C.

[2] = Optimum pH, temperature and salt concentration for enzyme activity
Experimental: The purified enzyme prepared in Example 4-1 was used to examine the optimum pH, optimum temperature and optimum salt concentration for JT-ISH-224-derived recombinant β-galactoside-α2,6-sialyltransferase N1C0.
Acetate buffer (pH 4.0, pH 4.5 and pH 5.0), cacodylate buffer (pH 5.0, pH 5.5, pH 6.0, pH 6.5 and pH 7.0), phosphate buffer (pH 7.0, pH 7.5 and pH 8.0) and TAPS buffer (pH 8.0, pH 8.5 and pH 9.0) were prepared and used for enzyme activity measurement at 25° C. at various pH values.
The enzyme activity was measured at an interval of 5° C. starting from 10° C. up to 50° C. using cacodylate buffer (pH 5.0).
The enzyme activity was measured at 30° C. using cacodylate buffer (pH 5.0) by adjusting the NaCl concentration in the reaction solution to 0 M, 0.1 M, 0.25 M, 0.5 M, 0.75 M, 1.0 M, 1.5 M or 2.0 M.

asialofetuin = assay: Sialic acid transfer to glycoprotein acceptor; conditions: 25° C., 2 hours
Experimental: As a glycosyl acceptor substrate, asialofetuin was used. Asialofetuin (2 mg) was dissolved in 1 ml of 20 mM Bis-Tris buffer (pH 6.0) and used as a glycosyl acceptor substrate solution. As a glycosyl donor substrate, CMP-NeuAc was used. The glycosyl acceptor substrate solution (40 μl), the glycosyl donor substrate (5 μl) and either of the enzyme solutions (5 μl, 10 mU each) were mixed and incubated at 25° C. for 2 hours to cause sialic acid transfer reaction. After completion of the reaction, the reaction solution was gel-filtered by being applied to a SEPHADEX® G-50 Superfine (0.8×18.0 cm) equilibrated with 0.1 M sodium chloride. A glycoprotein-containing eluate fraction (2-4 ml fraction) from gel filtration was collected and measured for its radioactivity using a liquid scintillation counter to quantify sialic acid transferred to the glycosyl acceptor substrate.

B1: ISH224-N1C0 (protein, listed as Photobacterium sp.)
chain: MSEENTQSIIKNDINKTIIDEEYVNLEPINQSNISFTKHSWVQTCGTQQLLTEQNKESISLSVVAPRLDDDEKYCFDFNGVSNKGEKYITKVTLNVVAPSLEVYVDHASLPTLQQLMDIIKSEEENPTAQRYIAWGRIVPTDEQMKELNITSFALINNHTPADLVQEIVKQAQTKHRLNVKLSSNTAHSFDNLVPILKELNSFNNVTVTNIDLYDDGSAEYVNLYNWRDTLNKTDNLKIGKDYLEDVINGINEDTSNTGTSSVYNWQKLYPANYHFLRKDYLTLEPSLHELRDYIGDSLKQMQWDGFKKFNSKQQELFLSIVNFDKQKLQNEYNSSNLPNFVFTGTTVWAGNHEREYYAKQQINVINNAINESSPHYLGNSYDLFFKGHPGGGIINTLIMQNYPSMVDIPSKISFEVLMMTDMLPDAVAGIASSLYFTIPAEKIKFIVFTSTETITDRETALRSPLVQVMIKLGIVKEENVLFWADLPNCETGVCIAV
- fold higher productivity than Pasteurella multocida-derived α2,3-sialyltransferase (6,000 U/L) [1]: about 1.8 fold
- fold higher productivity than Photobacterium damselae-derived recombinant β-galactoside-α2,6-sialyltransferase (224.5 U/L) [1]: about 48 fold
- Enzyme concentration in crude enzyme solution (unit/ml) ([1]; 4 hours after IPTG addition): 6.8 unit/ml
- Productivity (U/L of medium) ([1]; 4 hours after IPTG addition): 589 U/L of medium
- Total enzyme activity (unit) ([1]; 4 hours after IPTG addition): 177 unit
- Amount of transferred sialic acid ([1]; 4 hours after IPTG addition): 0.17 nmol
- Radioactivity (CPM) ([1]; 4 hours after IPTG addition): 142.5 CPM
- Enzyme concentration in crude enzyme solution (unit/ml) ([1]; 6 hours after IPTG addition): 14.8 unit/ml
- Productivity (U/L of medium) ([1]; 6 hours after IPTG addition): 1285 U/L of medium
- Total enzyme activity (unit) ([1]; 6 hours after IPTG addition): 385 unit
- Amount of transferred sialic acid ([1]; 6 hours after IPTG addition): 0.37 nmol
- Radioactivity (CPM) ([1]; 6 hours after IPTG addition): 311.0 CPM
- Enzyme concentration in crude enzyme solution (unit/ml) ([1]; 22 hours after IPTG addition): 86.2 unit/ml
- Productivity (U/L of medium) ([1]; 22 hours after IPTG addition): 10776 U/L of medium
- Total enzyme activity (unit) ([1]; 22 hours after IPTG addition): 3233 unit
- Amount of transferred sialic acid ([1]; 22 hours after IPTG addition): 2.16 nmol
- Radioactivity (CPM) ([1]; 22 hours after IPTG addition): 1809.0 CPM
- Productivity (U/L of medium) ([1]; 22 hours after IPTG addition, listed as ISH224-N1C0 clone): 10,776 U/L of medium
- Enzyme concentration in crude enzyme solution (unit/ml) ([1]; 28 hours after IPTG addition): 69.5 unit/ml
- Productivity (U/L of medium) ([1]; 28 hours after IPTG addition): 8946 U/L of medium
- Total enzyme activity (unit) ([1]; 28 hours after IPTG addition): 2684 unit
- Amount of transferred sialic acid ([1]; 28 hours after IPTG addition): 1.74 nmol
- Radioactivity (CPM) ([1]; 28 hours after IPTG addition): 1459.0 CPM
- time of maximum β-galactoside-α2,6-sialyltransferase activity after IPTG addition ([1]; culture at 30° C., 1 mM IPTG): 22 h
- pH of maximum enzyme activity (optimum pH) ([2]; 25° C., acetate, cacodylate, phosphate, TAPS buffers pH 4.0-9.0): 5.0
- temperature of maximum enzyme activity (optimum temperature) ([2]; cacodylate buffer (pH 5.0), 10° C. to 50° C.): 30 °C
- Radioactivity (cpm) (asialofetuin; 10 mU enzyme, glycoprotein fraction after gel filtration): 3051 cpm
- sialic acid transfer to asialofetuin (in words) (asialofetuin): higher efficiency of sialic acid transfer

Reference: patent US8187838B2, “β-Galactoside-α2, 6-sialyltransferase, a gene encoding thereof, and a method for producing thereof” (Japan Tobacco Inc., priority 2006, dated 2012)
